Reference: patent US20120294879A1, “CONSENSUS SEQUENCE FOR INFLUENZA A VIRUS” (priority 2009, published 2012)

Experiments:
[1] = target: HLA-DR2 (DRB1*1501), chimeric DRA1*0101:I-Eα and DRB1*1501:I-Eβ, as expressed in HLA-DR2 transgenic mice (human; mouse) (UniProt Q8BHN5); assay: cell-based or functional assay
[2] = target: HLA-B7 (B*0702), chimeric heavy chain with HLA-B*0702 α1 and α2 domains and H-2Kd murine α3 domain, (human; mouse), B*07:0; assay: cell-based or functional assay

Sequence of UniProt Q8BHN5 (Q8BHN5 whole entry, stated change not applied): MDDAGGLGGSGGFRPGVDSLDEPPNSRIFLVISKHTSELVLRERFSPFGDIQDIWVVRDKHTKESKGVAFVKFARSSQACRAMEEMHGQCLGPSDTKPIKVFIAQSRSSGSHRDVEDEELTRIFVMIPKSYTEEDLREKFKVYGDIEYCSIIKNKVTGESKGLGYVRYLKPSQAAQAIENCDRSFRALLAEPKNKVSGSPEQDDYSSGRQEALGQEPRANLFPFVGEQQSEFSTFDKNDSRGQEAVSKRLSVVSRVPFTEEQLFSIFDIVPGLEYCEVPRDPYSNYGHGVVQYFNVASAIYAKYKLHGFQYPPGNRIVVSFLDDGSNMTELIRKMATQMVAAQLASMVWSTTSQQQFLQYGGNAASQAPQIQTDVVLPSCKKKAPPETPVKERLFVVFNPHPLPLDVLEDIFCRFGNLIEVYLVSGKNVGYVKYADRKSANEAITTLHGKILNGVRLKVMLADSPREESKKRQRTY

Substance | IFN-γ ELISpot at 10 µg/ml peptide, splenocytes of immunized HLA transgenic mice [1] | lowest concentration of peptide giving positive ELISpot response [1] | IFN-γ ELISpot at 10 µg/ml peptide, splenocytes of immunized HLA transgenic mice [2] | lowest concentration of peptide giving positive ELISpot response [2]
M1 169-185 peptide of influenza virus A/New York/348/2003 (H1N1) | 56 | 0.1 µg/mL | – | –
NP 133-149 peptide of influenza virus A/New York/348/2003 (H1N1) | 238 | 0.1 µg/mL | – | –
NP 402-418 peptide of influenza virus A/New York/348/2003 (H1N1) | 207 | 0.1 µg/mL | – | –
NP 408-424 peptide of influenza virus A/New York/348/2003 (H1N1) | 110 | 1 µg/mL | – | –
PB1 328-344 peptide of influenza virus A/New York/348/2003 (H1N1) | – | – | 60 | 10 µg/mL
PB1 352-368 peptide of influenza virus A/New York/348/2003 (H1N1) | 52 | 1 µg/mL | – | –
PB1 358-374 peptide of influenza virus A/New York/348/2003 (H1N1) | 84 | 0.1 µg/mL | – | –
PB1 465-481 peptide of influenza virus A/New York/348/2003 (H1N1) | 231 | 1 µg/mL | – | –
PB1 519-535 peptide of influenza virus A/New York/348/2003 (H1N1) | 75 | 0.1 µg/mL | – | –
PB1 525-541 peptide of influenza virus A/New York/348/2003 (H1N1) | 159 | 0.1 µg/mL | – | –
PB1 554-570 peptide of influenza virus A/New York/348/2003 (H1N1) | 109 | 1 µg/mL | – | –
PB1 560-576 peptide of influenza virus A/New York/348/2003 (H1N1) | 194 | 0.1 µg/mL | – | –
PB2 500-516 peptide of influenza virus A/New York/348/2003 (H1N1) | – | – | 184 | 0.1 µg/mL
PB2 524-540 peptide of influenza virus A/New York/348/2003 (H1N1) | 151 | 0.1 µg/mL | – | –
PB2 548-564 peptide of influenza virus A/New York/348/2003 (H1N1) | 96 | – | – | –
PB2 630-646 peptide of influenza virus A/New York/348/2003 (H1N1) | 104 | 0.1 µg/mL | – | –
